Source: patent US20240117065A1

Columns and labels:
Assay in all cases: cell-based or functional assay
[1] = molecular target: Catalytically active human CD73 (biochemical assay) (human) (UniProt P21589)
[2] = molecular target: Catalytically active mouse CD73 (biochemical assay) (mouse) (UniProt Q61503)
[3] = molecular target: Membrane-bound CD73 in MDA-MB-231 cells (UniProt P21589)
[4] = molecular target: Membrane-bound human CD73 (internalisation assay) (human) (UniProt P21589)
[5] = molecular target: Membrane-bound mouse CD73 (internalisation assay) (mouse) (UniProt Q61503)
[6] = molecular target: Soluble CD73 in MDA-MB-231 cells (UniProt P21589)

% Inhibition of CD73 (biochemical assay), Human [1] [%] | % Inhibition of CD73 (biochemical assay), Mouse [2] [%] | % Inhibition of CD73 (cell-based assay), Membrane-bound [3] [%] | Max % Act Mean [3] [%] | Max % Act n = 1 [3] [%] | Max % Act n = 2 [3] [%] | % internalisation of membrane-bound CD73, Human [4] [%] | Human % Inh, n = 1 (receptor internalisation assay) [4] [%] | Human % Inh, n = 2 (receptor internalisation assay) [4] [%] | % internalisation of membrane-bound CD73, Mouse [5] [%] | Murine % Inh, n = 1 (receptor internalisation assay) [5] [%] | Murine % Inh, n = 2 (receptor internalisation assay) [5] [%] | % Inhibition of CD73 (cell-based assay), soluble [6] [%] | Substance
20 | 21.3 | 29.9 | 31 | 30 | 32 | 61.7 | 8.99 | 61.7 | 7.14 | 5.18 | 9.09 | 10.4 | BMS-986179 (antibody)
91.3 | 17.8 | 68.2 | 68.8 | 69.5 | 68 | 47.5 | 49 | 46 | 6.46 | 5.18 | 7.74 | 77.1 | IPH53 (antibody)
– | – | – | 3.5 | – | 3.5 | – | – | – | – | – | – | – | IgG1K (antibody)
42.3 | 49.1 | 42 | 41.8 | 35.5 | 48 | 58 | 49.9 | 66.2 | 70.9 | 62.5 | 79.4 | 40 | MEDI9447 (antibody)
